# PMC4072508, “Genome-Wide Prediction and Validation of Peptides That Bind Human Prosurvival Bcl-2 Proteins” (PLoS Computational Biology, 2014)
# Molecular target: Bcl-xL, Q07817
# Test: peptide SPOT array, c-Myc-tagged receptor at 1 uM or 100 nM, anti-c-Myc-Cy3
# Chain of Bcl-xL, Q07817 (Q07817 1-209): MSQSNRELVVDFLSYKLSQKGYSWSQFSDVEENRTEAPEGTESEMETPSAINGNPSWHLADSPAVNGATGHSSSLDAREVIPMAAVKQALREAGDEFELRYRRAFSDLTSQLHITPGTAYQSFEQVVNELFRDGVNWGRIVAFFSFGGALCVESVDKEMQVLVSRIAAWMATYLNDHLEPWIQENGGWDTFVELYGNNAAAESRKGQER
row,Binder,SPOT signal as a fraction of Bim BH3's signal on the same receptor and array
1,AHKARALARLDRQTALAAFSDFKRLQ [FAM43B],1.22
2,DISALTASNLLKKYLEKYSGILEGPV [FIGN],0.13
3,DNHKKKTVKMLEYLLKDVLHGVFNYL [CASP5],0.24
4,SSLSDGLPVHLANILDELTQKKKMFK [AGBL2],0.1
5,PHQFDGVPDKDIQAAYQVKYNSKKMK [EVI5],0.58
6,PKIYEGAARKLNVSSDTVQHGVEGLT [COMMD2],0.03
7,HSEITPYATDLAQTSEKLIPHLHKLP [CCDC129],0.02
8,EVNMSLSGRYLEELSQRYRKQMEEMQ [C1orf9],0.03
9,GAQHSTMTSTDRRLGEDIFKGVVTKG [CCDC138],0.03
10,KFELEQNIKELNTLADQVDTTHELLT [APOL5],0.02

# Continued, values first:
row,SPOT signal as a fraction of Bim BH3's signal on the same receptor and array,Binder
1,0.03,YEQAKNISQDLEKQAARVHEEAKRAG [LAMC1]
2,0.84,VIKQRRLPDQLSKLLDRIQLSGRYYL [RAPGEF2]
3,0.1,TREAQKMAQLLVVLGKIINMKIKLFM [UGGT2]
4,0.02,KTALEKYHDGIEKAAEDSYAKIDEKT [NUF2]
5,0.03,DISLSNSGFKDVNFGCDYHQYRDKFS [PION]
6,0.02,GELAQVSGLEMRKWLDELFIIIMDML [mTOR]
7,0.04,TCRISESVKKLMELAYQTLLEATTSS [ZW10]
8,0.03,NESLTDTARVLSSMADAVLARVYKQS [OTC]
9,0.02,GKDHPDVAKQLNNLALLCQNQGKYEE [KLC1]
10,0.02,EVDVGKLVSRLQDGGTKITPKATNGP [OPHN1]
11,0.3,NPIGLYSAETLREMAQMYQMSLRGKA [LDB3]
12,0.06,RRRLLLASKELHQVAHDLDDELAWVQ [SPTBN4]
